Laboratory results taken from patent US20230167164A1 (IMMUNOWAKE, published 2023).
Substitutions are numbered along the chain they refer to. In names and notes the source's numbering stands.

How the values were obtained:
[1] = target: T1, mouse PD-1 (mouse, UniProt Q02242 25-167, limits assumed); experiment: affinity in PD-L1-Fc format; N/A indicates non-detectable PD-1 binding
T1 construct: also called mPD-1
T1 sequence (looked up): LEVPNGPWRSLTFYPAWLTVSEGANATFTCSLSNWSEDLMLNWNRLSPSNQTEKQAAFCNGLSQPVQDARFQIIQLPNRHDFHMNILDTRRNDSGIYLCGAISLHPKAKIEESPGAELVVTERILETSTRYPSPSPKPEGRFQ

[2] = target: T2, human PD-1 (human, UniProt Q15116 25-167, limits assumed); experiment: as above
T2 construct: nivolumab is called an anti-human PD-1 antibody; also called hPD-1
T2 sequence (Q15116 25-167 limits assumed): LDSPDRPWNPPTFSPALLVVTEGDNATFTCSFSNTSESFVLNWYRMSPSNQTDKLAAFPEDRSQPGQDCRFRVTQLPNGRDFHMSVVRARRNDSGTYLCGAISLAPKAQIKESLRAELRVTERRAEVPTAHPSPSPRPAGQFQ

[3] = target: T1, mouse PD-1; experiment: method not named
[4] = target: T2, human PD-1; experiment: method not named
[5] = target: T1, mouse PD-1; experiment: Kd column of Table 22; same value as PD-L2(mut2)-Fc in Table 21
[6] = target: T3, human IL-2 receptor (human, UniProt P01589 22-272; P14784 27-551; P31785 23-369); experiment: FACS on HEK-Blue IL-2 cells (IL-2 receptor, no PD-1)
T3 construct: whole, on cells; also called IL-2Rα, IL-2Rβ, IL-2Rγ; HEK-Blue IL-2 cells
T3 sequence (looked up) 1: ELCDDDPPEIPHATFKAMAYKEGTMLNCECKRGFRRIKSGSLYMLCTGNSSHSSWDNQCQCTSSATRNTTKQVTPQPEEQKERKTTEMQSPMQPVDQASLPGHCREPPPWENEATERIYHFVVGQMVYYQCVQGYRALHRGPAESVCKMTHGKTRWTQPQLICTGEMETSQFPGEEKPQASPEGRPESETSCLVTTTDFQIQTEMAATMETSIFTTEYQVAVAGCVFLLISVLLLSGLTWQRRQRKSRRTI
T3 sequence (looked up) 2: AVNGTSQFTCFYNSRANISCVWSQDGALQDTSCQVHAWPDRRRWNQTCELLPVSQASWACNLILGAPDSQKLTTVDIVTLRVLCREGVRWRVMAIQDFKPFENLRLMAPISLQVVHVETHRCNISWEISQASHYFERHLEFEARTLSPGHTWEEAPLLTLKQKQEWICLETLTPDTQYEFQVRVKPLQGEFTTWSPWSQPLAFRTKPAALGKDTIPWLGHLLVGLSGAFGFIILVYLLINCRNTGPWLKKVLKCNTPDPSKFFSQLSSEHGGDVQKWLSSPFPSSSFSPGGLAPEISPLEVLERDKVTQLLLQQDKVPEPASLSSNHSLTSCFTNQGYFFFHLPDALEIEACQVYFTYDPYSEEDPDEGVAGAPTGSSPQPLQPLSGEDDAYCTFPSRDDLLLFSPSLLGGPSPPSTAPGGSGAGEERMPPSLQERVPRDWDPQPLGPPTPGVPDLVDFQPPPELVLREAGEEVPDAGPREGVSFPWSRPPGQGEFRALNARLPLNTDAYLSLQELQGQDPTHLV
T3 sequence (looked up) 3: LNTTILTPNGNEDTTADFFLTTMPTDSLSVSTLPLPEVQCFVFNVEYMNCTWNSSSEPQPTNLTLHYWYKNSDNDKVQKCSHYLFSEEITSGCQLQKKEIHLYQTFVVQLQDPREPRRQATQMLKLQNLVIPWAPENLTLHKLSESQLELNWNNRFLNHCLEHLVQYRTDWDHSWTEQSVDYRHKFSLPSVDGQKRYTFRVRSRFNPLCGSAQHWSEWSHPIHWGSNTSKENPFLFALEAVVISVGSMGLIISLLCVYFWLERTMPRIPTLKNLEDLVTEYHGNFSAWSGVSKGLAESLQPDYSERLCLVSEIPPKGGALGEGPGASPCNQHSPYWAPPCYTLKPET

B1: PD-L1(mut1)-Fc (Fc fusion)
chain 1: FTVTVPKDLYVVEYGSNMTIECKFPVEKQLDLAALIVYWMMEDKNIIQFVHGEEDLKVQHSSYRQRARLLKDQLSLGNAALQITDVKLQDAGVYTCLIAYKGADYKRITVKVNAPYNKINQRILVVDPVTSEHELTCQAEGYPKAEVIWTSSDHQVLSGKTTTTNSKREEKLFNVTSTLRINTTTNEIFYCTFRRLDPEENHTAELVIPELPLAHPPNERDKTHTCPPCPAPEDEGGPSVFLFPPKPKDTLMISRTPEVTCVVVDVSHEDPEVKFNWYVDGVEVHNAKTKPREEQYNSTYRVVSVLTVLHQDWLNGKEYKCKVSNKALPAPIEKTISKAKGQPREPQVYVYPPSREEMTKNQVSLTCLVKGFYPSDIAVEWESNGQPENNYKTTPPVLDEDGSFALVSKLTVDKSRWQQGNVFSCSVMHEALHNHYTQKSLSLSPGK
chain 2: B1 chain 1 with D234K, E235K, Y351L, T366L, N390R, K392M, T394W, E400S, A405F, V407Y
notes: also called E58M/R113T/M115L/S117A/G119K
- binding result [1]: no binding
- binding result [2]: no binding

B2: IL-12(E59A/F60A)/PD-L2(mut2)-Fc (Fc fusion)
chain 1: LFTVTVPKELYIIEHGSNVTLECNFDTGSHVNLGAITAVLQKVENDTSPHRERATLLEEQLPLGKASFHIPQVQVRDEGQYQCIIIYGVAWDYKYLTLKVKASYRKINTHILKVPETDEVELTCQATGYPLAEVSWPNVSVPANTSHSRTPEGLYQVTSVLRLKPPPGRNFSCVFWNTHVRELTLASIDLQSQMEPRTHPTGGGGSGGGIWELKKDVYVVELDWYPDAPGEMVVLTCDTPEEDGITWTLDQSSEVLGSGKTLTIQVKAAGDAGQYTCHKGGEVLSHSLLLLHKKEDGIWSTDILKDQKEPKNKTFLRCEAKNYSGRFTCWWLTTISTDLTFSVKSSRGSSDPQGVTCGAATLSAERVRGDNKEYEYSVECQEDSACPAAEESLPIEVMVDAVHKLKYENYTSSFFIRDIIKPDPPKNLQLKPLKNSRQVEVSWEYPDTWSTPHSYFSLTFCVQVQGKSKREKKDRVFTDKTSATVICRKNASISVRAQDRYYSSSWSEWASVPCSGGGGSGGGSGGGGSRNLPVATPDPGMFPCLHHSQNLLRAVSNMLQKARQTLEFYPCTSEEIDHEDITKDKTSTVEACLPLELTKNESCLNSRETSFITNGSCLASRKTSFMMALCLSSIYEDLKMYQVEFKTMNAKLLMDPKRQIFLDQNMLAVIDELMQALNFNSETVPQKSSLEEPDFYKTKIKLCILLHAFRIRAVTIDRVMSYLNASGGGGSGGGDKTHTCPPCPAPEDEGGPSVFLFPPKPKDTLMISRTPEVTCVVVDVSHEDPEVKFNWYVDGVEVHNAKTKPREEQYNSTYRVVSVLTVLHQDWLNGKEYKCKVSNKALPAPIEKTISKAKGQPREPQVYVYPPSREEMTKNQVSLTCLVKGFYPSDIAVEWESNGQPENNYKTTPPVLDEDGSFALVSKLTVDKSRWQQGNVFSCSVMHEALHNHYTQKSLSLSPGK
chain 2: LFTVTVPKELYIIEHGSNVTLECNFDTGSHVNLGAITAVLQKVENDTSPHRERATLLEEQLPLGKASFHIPQVQVRDEGQYQCIIIYGVAWDYKYLTLKVKASYRKINTHILKVPETDEVELTCQATGYPLAEVSWPNVSVPANTSHSRTPEGLYQVTSVLRLKPPPGRNFSCVFWNTHVRELTLASIDLQSQMEPRTHPTGGGGSGGGDKTHTCPPCPAPEKKGGPSVFLFPPKPKDTLMISRTPEVTCVVVDVSHEDPEVKFNWYVDGVEVHNAKTKPREEQYNSTYRVVSVLTVLHQDWLNGKEYKCKVSNKALPAPIEKTISKAKGQPREPQVYVLPPSREEMTKNQVSLLCLVKGFYPSDIAVEWESNGQPENRYMTWPPVLDSDGSFFLYSKLTVDKSRWQQGNVFSCSVMHEALHNHYTQKSLSLSPGK
notes: also called IL-12(E59A/F60A)/PD-L2(S58V)-Fc
- Kd [3]: ~100 nM
- Kd [4]: ~100 nM
- Kd [5]: 230 nM

B3: ligand-IL-2 mutant-PD-L2-Fc (Fc fusion)
chain 1: LFTVTVPKELYIIEHGSNVTLECNFDTGSHVNLGAITASLQKVENDTSPHRERATLLEEQLPLGKASFHIPQVQVRDEGQYQCIIIYGVAWDYKYLTLKVKASYRKINTHILKVPETDEVELTCQATGYPLAEVSWPNVSVPANTSHSRTPEGLYQVTSVLRLKPPPGRNFSCVFWNTHVRELTLASIDLQSQMEPRTHPTGGGGSAPTSSSTKKTQLQLEHLLLDLQMILNGINNYKNPKLTDMLTFEFYMPKKATELKHLQCLERELKPLEEVLNLAQSKNFHLRPRDLISNINVIVLELKGSETTFMCEYADETATIVEFLNRWITFCQSIISTLTDKTHTCPPCPAPEDEGGPSVFLFPPKPKDTLMISRTPEVTCVVVDVSHEDPEVKFNWYVDGVEVHNAKTKPREEQYNSTYRVVSVLTVLHQDWLNGKEYKCKVSNKALPAPIEKTISKAKGQPREPQVYVYPPSREEMTKNQVSLTCLVKGFYPSDIAVEWESNGQPENNYKTTPPVLDEDGSFALVSKLTVDKSRWQQGNVFSCSVMHEALHNHYTQKSLSLSPGK
chain 2: LFTVTVPKELYIIEHGSNVTLECNFDTGSHVNLGAITASLQKVENDTSPHRERATLLEEQLPLGKASFHIPQVQVRDEGQYQCIIIYGVAWDYKYLTLKVKASYRKINTHILKVPETDEVELTCQATGYPLAEVSWPNVSVPANTSHSRTPEGLYQVTSVLRLKPPPGRNFSCVFWNTHVRELTLASIDLQSQMEPRTHPTGGGGSDKTHTCPPCPAPEKKGGPSVFLFPPKPKDTLMISRTPEVTCVVVDVSHEDPEVKFNWYVDGVEVHNAKTKPREEQYNSTYRVVSVLTVLHQDWLNGKEYKCKVSNKALPAPIEKTISKAKGQPREPQVYVLPPSREEMTKNQVSLLCLVKGFYPSDIAVEWESNGQPENRYMTWPPVLDSDGSFFLYSKLTVDKSRWQQGNVFSCSVMHEALHNHYTQKSLSLSPGK
notes: also called IL-2(R38D/K43E/E61R)/PD-L2-Fc immunocytokine; construct #11
- binding result [6]: no binding
